{"source": "patent US20230313215A1", "about": "(published 2023)", "binders": {"B1": {"name": "MBP-43-8(low)-syn. lig.(S5), ligand VKESLV (other, not shown: large carriers)", "chain": "GEAPFQCRICMANFSRQDRLDRHTRTHTGEKPFQCRICMANFSQKEHLAGHLRTHTGEKPFQCRICMANFSRRDNLNRHLKTHLRGSGSGVKESLV"}}, "key": {"[1]": {"molecular_target": "T1, 2x syn. clamp (two-PDZ clamp, nc=2)", "T1 chain": "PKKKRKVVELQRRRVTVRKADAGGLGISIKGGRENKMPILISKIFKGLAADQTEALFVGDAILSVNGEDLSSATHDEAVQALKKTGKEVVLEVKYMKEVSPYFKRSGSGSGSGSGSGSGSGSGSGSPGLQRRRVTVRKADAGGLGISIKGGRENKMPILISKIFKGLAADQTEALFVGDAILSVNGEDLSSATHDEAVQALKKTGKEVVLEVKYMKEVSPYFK", "assay": "cell-based or functional assay"}, "[2]": {"molecular_target": "T2, 3x syn. clamp (three-PDZ clamp, nc=3)", "T2 chain": "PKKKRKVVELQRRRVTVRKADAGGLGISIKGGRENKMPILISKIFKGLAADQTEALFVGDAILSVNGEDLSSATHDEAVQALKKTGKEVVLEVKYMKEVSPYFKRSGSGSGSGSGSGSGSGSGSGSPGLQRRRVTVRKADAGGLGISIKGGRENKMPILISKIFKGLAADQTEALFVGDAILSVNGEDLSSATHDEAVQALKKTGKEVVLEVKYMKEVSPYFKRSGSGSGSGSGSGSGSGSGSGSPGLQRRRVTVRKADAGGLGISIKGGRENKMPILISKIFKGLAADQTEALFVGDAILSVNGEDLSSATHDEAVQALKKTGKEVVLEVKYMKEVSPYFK", "assay": "cell-based or functional assay"}}, "data": [{"binder": "B1", "values": [{"measurement": "EC50 of synTF titration on nc=2 DBM oligo probe (fluorescence anisotropy) in the presence of clamp", "setting": "[1]", "result": 18, "unit": "nM"}, {"measurement": "EC50 of synTF titration on nc=3 DBM oligo probe (fluorescence anisotropy) in the presence of three-PDZ clamp", "setting": "[2]", "result": 5.1, "unit": "nM"}]}]}
